Results as given in IntAct's records for PubMed 15205937.

B1: Cysteine and glycine-rich protein 3 (Homo sapiens), P50461 (parent)
chain: MPNWGGGAKCGACEKTVYHAEEIQCNGRSFHKTCFHCMACRKALDSTTVAAHESEIYCKVCYGRRYGPKGIGYGQGAGCLSTDTGEHLGLQFQQSPKPARSVTTSNPSKFTAKFGESEKCPRCGKSVYAAEKVMGGGKPWHKTCFRCAICGKSLESTNVTDKDGELYCKVCYAKNFGPTGIGFGGLTQQVEKKE

Variants of: B1
Conditions: with nrap_human NRAP

| Variant | effect of a mutation on the interaction |
| --- | --- |
| C58G | disrupting interaction |

Variants of: B1
Conditions: with nrap_human NRAP
Remark: another data set of the same source

| Variant | effect of a mutation on the interaction |
| --- | --- |
| C58G | decreasing interaction |

Variants of: B1
Conditions: with actn2_human ACTN2, P35609
actn2_human ACTN2, P35609, sequence (P35609 whole entry): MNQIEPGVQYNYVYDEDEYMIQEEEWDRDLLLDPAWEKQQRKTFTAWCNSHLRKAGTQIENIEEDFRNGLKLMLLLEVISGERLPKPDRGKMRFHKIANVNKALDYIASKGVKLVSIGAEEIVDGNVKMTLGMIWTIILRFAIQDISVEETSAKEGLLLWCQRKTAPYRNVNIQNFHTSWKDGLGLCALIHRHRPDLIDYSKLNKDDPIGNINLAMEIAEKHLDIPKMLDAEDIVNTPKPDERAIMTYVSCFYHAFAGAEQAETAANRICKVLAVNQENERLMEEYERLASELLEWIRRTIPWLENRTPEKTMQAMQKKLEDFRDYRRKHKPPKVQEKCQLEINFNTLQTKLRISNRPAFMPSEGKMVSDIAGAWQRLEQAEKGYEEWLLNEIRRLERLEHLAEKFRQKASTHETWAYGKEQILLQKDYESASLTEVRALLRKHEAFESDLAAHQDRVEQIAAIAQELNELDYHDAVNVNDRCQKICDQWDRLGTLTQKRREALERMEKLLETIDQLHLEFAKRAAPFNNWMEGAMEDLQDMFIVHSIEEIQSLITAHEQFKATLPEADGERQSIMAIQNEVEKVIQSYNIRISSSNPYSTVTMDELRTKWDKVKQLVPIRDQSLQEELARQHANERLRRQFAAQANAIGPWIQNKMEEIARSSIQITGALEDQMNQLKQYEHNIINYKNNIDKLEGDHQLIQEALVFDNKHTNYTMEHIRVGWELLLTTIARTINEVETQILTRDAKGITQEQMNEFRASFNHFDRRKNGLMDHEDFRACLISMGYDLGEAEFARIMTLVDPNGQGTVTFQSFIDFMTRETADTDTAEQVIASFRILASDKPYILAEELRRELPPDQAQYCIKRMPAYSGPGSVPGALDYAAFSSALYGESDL

| Variant | effect of a mutation on the interaction |
| --- | --- |
| C58G | decreasing interaction |
